The results in this text go back to article PMC12667445, “Targeting RBM10‐Repressed RORB Activity in Liquid Condensates Inhibits Lysosomal Biogenesis and Neuroblastoma Progression via Affecting NF‐κB Signaling” (Advanced Science, 2025).

This experiment addresses T1, recombinant full‐length MBP‐tagged RBM10 (human, UniProt P98175 1-930).
T1 construct: RBM10 (variant 1 is the form found in NB cells), full length; Printed domain limits: RRM1 129-209, ZF1 212-242, RRM2 300-384, ZF2 759-784, G patch 858-904; The construct and its expression host are not described in the main text; They may be in the Supporting Information; source: recombinant, purified
Kind of experiment: co-IP; purified recombinant GST-tagged RORB and MBP-tagged RBM10, full-length or truncated; western blot. The note with it: both partners purified. For orientation: In western blotting, separated proteins are transferred to a membrane and probed.

T1 sequence (P98175 whole entry, the tested form may be a part): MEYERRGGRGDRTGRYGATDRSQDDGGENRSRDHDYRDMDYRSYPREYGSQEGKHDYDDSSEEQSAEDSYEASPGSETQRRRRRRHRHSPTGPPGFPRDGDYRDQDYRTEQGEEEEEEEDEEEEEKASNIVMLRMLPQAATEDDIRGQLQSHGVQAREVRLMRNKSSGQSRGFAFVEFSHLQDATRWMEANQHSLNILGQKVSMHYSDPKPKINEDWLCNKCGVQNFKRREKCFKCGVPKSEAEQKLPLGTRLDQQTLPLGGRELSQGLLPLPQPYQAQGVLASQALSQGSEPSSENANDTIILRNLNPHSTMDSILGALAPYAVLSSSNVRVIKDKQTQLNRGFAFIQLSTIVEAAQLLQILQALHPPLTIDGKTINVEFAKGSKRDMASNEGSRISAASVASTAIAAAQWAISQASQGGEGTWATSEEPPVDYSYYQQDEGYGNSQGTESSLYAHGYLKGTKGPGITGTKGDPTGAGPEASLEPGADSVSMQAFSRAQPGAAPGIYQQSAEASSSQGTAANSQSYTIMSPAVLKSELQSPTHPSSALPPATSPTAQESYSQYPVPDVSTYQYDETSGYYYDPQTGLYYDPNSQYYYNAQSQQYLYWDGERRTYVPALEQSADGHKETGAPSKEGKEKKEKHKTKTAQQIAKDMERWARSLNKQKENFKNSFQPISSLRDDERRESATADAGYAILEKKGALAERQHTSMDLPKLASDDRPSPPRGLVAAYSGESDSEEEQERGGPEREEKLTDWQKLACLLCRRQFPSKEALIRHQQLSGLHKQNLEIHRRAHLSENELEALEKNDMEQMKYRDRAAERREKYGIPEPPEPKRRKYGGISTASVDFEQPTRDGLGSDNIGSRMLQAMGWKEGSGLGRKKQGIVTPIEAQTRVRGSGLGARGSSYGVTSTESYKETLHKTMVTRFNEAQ

B1: recombinant full‐length GST‐tagged RORB (natural protein, UniProt Q92753-1 1-459, looked up)
chain: MRAQIEVIPCKICGDKSSGIHYGVITCEGCKGFFRRSQQNNASYSCPRQRNCLIDRTNRNRCQHCRLQKCLALGMSRDAVKFGRMSKKQRDSLYAEVQKHQQRLQEQRQQQSGEAEALARVYSSSISNGLSNLNNETSGTYANGHVIDLPKSEGYYNVDSGQPSPDQSGLDMTGIKQIKQEPIYDLTSVPNLFTYSSFNNGQLAPGITMTEIDRIAQNIIKSHLETCQYTMEELHQLAWQTHTYEEIKAYQSKSREALWQQCAIQITHAIQYVVEFAKRITGFMELCQNDQILLLKSGCLEVVLVRMCRAFNPLNNTVLFEGKYGGMQMFKALGSDDLVNEAFDFAKNLCSLQLTEEEIALFSSAVLISPDRAWLIEPRKVQKLQEKIYFALQHVIQKNHLDDETLAKLIAKIPTITAVCNLHGEKLQVFKQSHPEIVNTLFPPLYKELFNPDCATGCK
notes: The construct and its expression host are not described in the main text; They may be in the Supporting Information; source: recombinant, purified
B1: the binding result was “binds”.
